Data: patent US20240026004A1

Experiments:
[1] = molecular target: human PD-L1 on CHO-K1 cells (human) (UniProt Q9NZQ7); assay: dual-target flow cytometry: sample pre-mixed with 3 µg/ml human TGF-β1, then CHO-K1 cells overexpressing human PD-L1, detection with PE anti-human TGF-β1 antibody (signal needs PD-L1 and TGF-β1 bound at once)
[2] = molecular target: human PD-L1 on CHO-K1 cells (human) (UniProt Q9NZQ7); assay: flow cytometry on CHO-K1 cells overexpressing human PD-L1, PE anti-human IgG detection, median fluorescence intensity
human TGF-β1 (human) = human TGF-β1 (human) (UniProt P01137); assay: ELISA, TGF-β1 coated at 0.5 µg/ml, HRP anti-human IgG detection, OD450
human TGF-β3 (human) = human TGF-β3 (human) (UniProt P10600); assay: ELISA, TGF-β3 coated at 0.5 µg/ml, HRP anti-human IgG detection, OD450
human TGF-β3 (human), sequence (P10600 301-412 limits assumed): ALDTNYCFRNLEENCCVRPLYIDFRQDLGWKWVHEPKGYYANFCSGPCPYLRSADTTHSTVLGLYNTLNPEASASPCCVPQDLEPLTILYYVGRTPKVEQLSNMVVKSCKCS

human PD-L1 on CHO-K1 cells (human), sequence (Q9NZQ7 19-290): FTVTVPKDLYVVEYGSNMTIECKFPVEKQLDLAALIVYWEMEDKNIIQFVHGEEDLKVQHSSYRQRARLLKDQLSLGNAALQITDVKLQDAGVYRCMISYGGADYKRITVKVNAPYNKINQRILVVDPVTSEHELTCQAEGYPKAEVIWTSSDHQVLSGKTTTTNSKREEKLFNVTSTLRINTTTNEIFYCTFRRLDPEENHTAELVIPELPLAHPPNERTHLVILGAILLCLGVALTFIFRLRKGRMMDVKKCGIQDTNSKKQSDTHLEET
human TGF-β1 (human), sequence (P01137 279-390 limits assumed): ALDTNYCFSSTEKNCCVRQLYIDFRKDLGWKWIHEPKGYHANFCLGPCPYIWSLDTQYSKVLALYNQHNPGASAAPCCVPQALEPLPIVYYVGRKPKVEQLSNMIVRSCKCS

900544 (control drug M7824 from Merck, expressed in-house) (bispecific antibody)
EC50 [1]: 0.788 nM | EC50 [2]: 1.43 nM | EC50 (human TGF-β1 (human)): 0.598 nM | EC50 (human TGF-β3 (human)): 1.12 nM
